We go through 27 molecules from PMC10786891, “Massively parallel profiling of RNA-targeting CRISPR-Cas13d”.

To fix the notation:
B1: target 1 insU 3' of 12,insC 3' of 1 (mixed)
RNA 1: CACCCGUGCAAAAAUGCAGGGGUCUAAAACUGAGCGGAUAACCUCUCUAUGG
RNA 2: GGGAAUGGAUCCACAUCUACGAAUUCGUACCAUAGAGAGGUUUAUCCGCUCACCCGAGAUCGGAAGAGCACACGU
B2: target 1 insA 3' of 7,insG 3' of 2 (mixed)
RNA 1: CACCCGUGCAAAAAUGCAGGGGUCUAAAACUGAGCGGAUAACCUCUCUAUGG
RNA 2: GGGAAUGGAUCCACAUCUACGAAUUCGUACCAUAGAGAGGUUAUCACGCUCGACCGAGAUCGGAAGAGCACACGU
B3: target 1 insU 3' of 20,insG 3' of 9 (mixed)
RNA 1: CACCCGUGCAAAAAUGCAGGGGUCUAAAACUGAGCGGAUAACCUCUCUAUGG
RNA 2: GGGAAUGGAUCCACAUCUACGAAUUCGUACCAUUAGAGAGGUUAGUCCGCUCACCGAGAUCGGAAGAGCACACGU
B4: target 2 MT 5'PFS AGG 3'PFS CAU (mixed)
RNA 1: CACCCGUGCAAAAUUGCAGGGGUCUAAAACCUUCUCCAAAUUGUUUCAUCCU
RNA 2: GGGAAUGGAUCCACAUCUACGAAUUCAGGAGGAUGAAACAAUUUGGAGAAGCAUAGAUCGGAAGAGCACACGU
B5: target 2 MT 5'PFS GAC 3'PFS AAG (mixed)
RNA 1: CACCCGUGCAAAAUUGCAGGGGUCUAAAACCUUCUCCAAAUUGUUUCAUCCU
RNA 2: GGGAAUGGAUCCACAUCUACGAAUUCGACAGGAUGAAACAAUUUGGAGAAGAAGAGAUCGGAAGAGCACACGU
B6: target 2 MT 5'PFS AAU 3'PFS UAU (mixed)
RNA 1: CACCCGUGCAAAAUUGCAGGGGUCUAAAACCUUCUCCAAAUUGUUUCAUCCU
RNA 2: GGGAAUGGAUCCACAUCUACGAAUUCAAUAGGAUGAAACAAUUUGGAGAAGUAUAGAUCGGAAGAGCACACGU
B7: target 2 MT 5'PFS UUU 3'PFS UGU (mixed)
RNA 1: CACCCGUGCAAAAUUGCAGGGGUCUAAAACCUUCUCCAAAUUGUUUCAUCCU
RNA 2: GGGAAUGGAUCCACAUCUACGAAUUCUUUAGGAUGAAACAAUUUGGAGAAGUGUAGAUCGGAAGAGCACACGU
B8: target 2 MT 5'PFS GCC 3'PFS UAU (mixed)
RNA 1: CACCCGUGCAAAAUUGCAGGGGUCUAAAACCUUCUCCAAAUUGUUUCAUCCU
RNA 2: GGGAAUGGAUCCACAUCUACGAAUUCGCCAGGAUGAAACAAUUUGGAGAAGUAUAGAUCGGAAGAGCACACGU
B9: target 2 MT 5'PFS AAA 3'PFS CAG (mixed)
RNA 1: CACCCGUGCAAAAUUGCAGGGGUCUAAAACCUUCUCCAAAUUGUUUCAUCCU
RNA 2: GGGAAUGGAUCCACAUCUACGAAUUCAAAAGGAUGAAACAAUUUGGAGAAGCAGAGAUCGGAAGAGCACACGU
B10: target 2 MT 5'PFS ACA 3'PFS AUU (mixed)
RNA 1: CACCCGUGCAAAAUUGCAGGGGUCUAAAACCUUCUCCAAAUUGUUUCAUCCU
RNA 2: GGGAAUGGAUCCACAUCUACGAAUUCACAAGGAUGAAACAAUUUGGAGAAGAUUAGAUCGGAAGAGCACACGU
B11: target 2 MT 5'PFS CUU 3'PFS UUA (mixed)
RNA 1: CACCCGUGCAAAAUUGCAGGGGUCUAAAACCUUCUCCAAAUUGUUUCAUCCU
RNA 2: GGGAAUGGAUCCACAUCUACGAAUUCCUUAGGAUGAAACAAUUUGGAGAAGUUAAGAUCGGAAGAGCACACGU
B12: target 2 MT 5'PFS UGC 3'PFS UUC (mixed)
RNA 1: CACCCGUGCAAAAUUGCAGGGGUCUAAAACCUUCUCCAAAUUGUUUCAUCCU
RNA 2: GGGAAUGGAUCCACAUCUACGAAUUCUGCAGGAUGAAACAAUUUGGAGAAGUUCAGAUCGGAAGAGCACACGU
B13: target 2 MT 5'PFS GGA 3'PFS UGC (mixed)
RNA 1: CACCCGUGCAAAAUUGCAGGGGUCUAAAACCUUCUCCAAAUUGUUUCAUCCU
RNA 2: GGGAAUGGAUCCACAUCUACGAAUUCGGAAGGAUGAAACAAUUUGGAGAAGUGCAGAUCGGAAGAGCACACGU
B14: target 2 MT 5'PFS CUU 3'PFS UUG (mixed)
RNA 1: CACCCGUGCAAAAUUGCAGGGGUCUAAAACCUUCUCCAAAUUGUUUCAUCCU
RNA 2: GGGAAUGGAUCCACAUCUACGAAUUCCUUAGGAUGAAACAAUUUGGAGAAGUUGAGAUCGGAAGAGCACACGU
B15: target 2 MT 5'PFS GAC 3'PFS AAA (mixed)
RNA 1: CACCCGUGCAAAAUUGCAGGGGUCUAAAACCUUCUCCAAAUUGUUUCAUCCU
RNA 2: GGGAAUGGAUCCACAUCUACGAAUUCGACAGGAUGAAACAAUUUGGAGAAGAAAAGAUCGGAAGAGCACACGU
B16: target 2 MT 5'PFS UUU 3'PFS UGC (mixed)
RNA 1: CACCCGUGCAAAAUUGCAGGGGUCUAAAACCUUCUCCAAAUUGUUUCAUCCU
RNA 2: GGGAAUGGAUCCACAUCUACGAAUUCUUUAGGAUGAAACAAUUUGGAGAAGUGCAGAUCGGAAGAGCACACGU
B17: target 2 MT 5'PFS GCC 3'PFS UAC (mixed)
RNA 1: CACCCGUGCAAAAUUGCAGGGGUCUAAAACCUUCUCCAAAUUGUUUCAUCCU
RNA 2: GGGAAUGGAUCCACAUCUACGAAUUCGCCAGGAUGAAACAAUUUGGAGAAGUACAGAUCGGAAGAGCACACGU
B18: target 2 MT 5'PFS CUU 3'PFS UUU (mixed)
RNA 1: CACCCGUGCAAAAUUGCAGGGGUCUAAAACCUUCUCCAAAUUGUUUCAUCCU
RNA 2: GGGAAUGGAUCCACAUCUACGAAUUCCUUAGGAUGAAACAAUUUGGAGAAGUUUAGAUCGGAAGAGCACACGU
B19: target 2 MT 5'PFS AUA 3'PFS AUU (mixed)
RNA 1: CACCCGUGCAAAAUUGCAGGGGUCUAAAACCUUCUCCAAAUUGUUUCAUCCU
RNA 2: GGGAAUGGAUCCACAUCUACGAAUUCAUAAGGAUGAAACAAUUUGGAGAAGAUUAGAUCGGAAGAGCACACGU
B20: target 2 MT 5'PFS GAC 3'PFS AAC (mixed)
RNA 1: CACCCGUGCAAAAUUGCAGGGGUCUAAAACCUUCUCCAAAUUGUUUCAUCCU
RNA 2: GGGAAUGGAUCCACAUCUACGAAUUCGACAGGAUGAAACAAUUUGGAGAAGAACAGAUCGGAAGAGCACACGU
B21: target 2 MT 5'PFS CUU 3'PFS UUC (mixed)
RNA 1: CACCCGUGCAAAAUUGCAGGGGUCUAAAACCUUCUCCAAAUUGUUUCAUCCU
RNA 2: GGGAAUGGAUCCACAUCUACGAAUUCCUUAGGAUGAAACAAUUUGGAGAAGUUCAGAUCGGAAGAGCACACGU
B22: target 2 MT 5'PFS GCC 3'PFS UAG (mixed)
RNA 1: CACCCGUGCAAAAUUGCAGGGGUCUAAAACCUUCUCCAAAUUGUUUCAUCCU
RNA 2: GGGAAUGGAUCCACAUCUACGAAUUCGCCAGGAUGAAACAAUUUGGAGAAGUAGAGAUCGGAAGAGCACACGU
B23: target 2 MT 5'PFS UAC 3'PFS ACU (mixed)
RNA 1: CACCCGUGCAAAAUUGCAGGGGUCUAAAACCUUCUCCAAAUUGUUUCAUCCU
RNA 2: GGGAAUGGAUCCACAUCUACGAAUUCUACAGGAUGAAACAAUUUGGAGAAGACUAGAUCGGAAGAGCACACGU
B24: target 2 MT 5'PFS GCC 3'PFS UAA (mixed)
RNA 1: CACCCGUGCAAAAUUGCAGGGGUCUAAAACCUUCUCCAAAUUGUUUCAUCCU
RNA 2: GGGAAUGGAUCCACAUCUACGAAUUCGCCAGGAUGAAACAAUUUGGAGAAGUAAAGAUCGGAAGAGCACACGU
B25: target 2 MT 5'PFS UGC 3'PFS UUA (mixed)
RNA 1: CACCCGUGCAAAAUUGCAGGGGUCUAAAACCUUCUCCAAAUUGUUUCAUCCU
RNA 2: GGGAAUGGAUCCACAUCUACGAAUUCUGCAGGAUGAAACAAUUUGGAGAAGUUAAGAUCGGAAGAGCACACGU
B26: target 2 MT 5'PFS AUG 3'PFS UUC (mixed)
RNA 1: CACCCGUGCAAAAUUGCAGGGGUCUAAAACCUUCUCCAAAUUGUUUCAUCCU
RNA 2: GGGAAUGGAUCCACAUCUACGAAUUCAUGAGGAUGAAACAAUUUGGAGAAGUUCAGAUCGGAAGAGCACACGU
B27: target 2 MT 5'PFS AAA 3'PFS CAC (mixed)
RNA 1: CACCCGUGCAAAAUUGCAGGGGUCUAAAACCUUCUCCAAAUUGUUUCAUCCU
RNA 2: GGGAAUGGAUCCACAUCUACGAAUUCAAAAGGAUGAAACAAUUUGGAGAAGCACAGAUCGGAAGAGCACACGU

The series concerns the target T1, EsCas13d, nuclease-dead (Eubacterium siraeum, UniProt B0MS50, R295A;H300A;R849A;H854A).
T1 sequence: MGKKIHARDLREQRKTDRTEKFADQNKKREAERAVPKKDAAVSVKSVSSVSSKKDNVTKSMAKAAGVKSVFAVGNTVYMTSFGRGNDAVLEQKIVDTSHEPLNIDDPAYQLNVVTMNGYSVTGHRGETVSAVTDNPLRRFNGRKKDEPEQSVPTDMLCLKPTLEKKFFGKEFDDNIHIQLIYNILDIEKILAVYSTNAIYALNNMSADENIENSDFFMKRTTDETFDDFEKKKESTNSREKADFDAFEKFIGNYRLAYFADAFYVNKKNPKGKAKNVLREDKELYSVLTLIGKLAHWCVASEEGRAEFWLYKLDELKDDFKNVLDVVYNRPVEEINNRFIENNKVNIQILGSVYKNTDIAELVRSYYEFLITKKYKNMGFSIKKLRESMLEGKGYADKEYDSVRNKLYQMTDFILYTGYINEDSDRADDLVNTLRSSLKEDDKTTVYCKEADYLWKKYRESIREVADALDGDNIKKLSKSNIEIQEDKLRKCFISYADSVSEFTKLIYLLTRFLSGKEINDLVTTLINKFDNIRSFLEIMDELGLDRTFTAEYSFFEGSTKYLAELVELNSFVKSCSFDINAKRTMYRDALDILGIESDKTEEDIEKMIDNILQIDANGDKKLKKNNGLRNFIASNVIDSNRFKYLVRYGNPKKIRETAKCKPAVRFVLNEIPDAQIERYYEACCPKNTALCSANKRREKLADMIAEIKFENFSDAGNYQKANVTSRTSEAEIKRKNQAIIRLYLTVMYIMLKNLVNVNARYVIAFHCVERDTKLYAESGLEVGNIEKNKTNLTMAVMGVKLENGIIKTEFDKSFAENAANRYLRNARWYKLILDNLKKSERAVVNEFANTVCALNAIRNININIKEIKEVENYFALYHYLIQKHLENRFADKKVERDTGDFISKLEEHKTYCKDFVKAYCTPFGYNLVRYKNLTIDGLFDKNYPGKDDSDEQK
The series can be described thus: crRNA (strand 1, pre-loaded); Mg2+; 40 mM Tris-HCl pH 7.5, 150 mM NaCl, 6 mM MgCl2, 1 mM DTT, 0.1% Tween-20, 0.2 mg/ml BSA; 25 C; 10 min per concentration, then washed. The settings on record: tags: His6-TwinStrep-SUMO cleaved; N-terminal SNAP kept (SNAP-Surface 488); label: 3' end held by stalled T7 RNA polymerase.
B1 gave a Kd of 8.9 ± 0.7 nM.

In turn, B2 came in with a Kd of 7.4 ± 0.7 nM.

Molecule B3 gave an equilibrium dissociation constant (Kd) of 29 ± 4 nM.

For the molecule B4, the dissociation constant Kd came to 4.6 ± 0.6 nM.

For B5, binding was characterised by a dissociation constant (Kd) of 8 ± 0.8 nM.

In the case of B6, the Kd turned out to be 4.9 ± 0.9 nM.

For the molecule B7, binding was put at a Kd of 16 ± 1.8 nM.

As for B8, the Kd came out at 22 ± 4 nM.

In the case of B9, binding was characterised by a dissociation constant (Kd) of 3.8 ± 0.6 nM.

B10: the Kd was 5.5 ± 0.8 nM.

As to B11, the affinity, expressed as Kd, was 5 ± 0.5 nM.

On to B12, for which the Kd was roughly 40 nM.

B13 gave a Kd of 10.5 ± 0.9 nM.

The molecule B14 returned a Kd of 6 ± 0.7 nM.

For the molecule B15, the dissociation constant (Kd) was determined as 9.5 ± 1.9 nM.

In turn, B16 displayed a Kd of 5.2 ± 0.4 nM.

With B17, the affinity, expressed as Kd, was 20 ± 7 nM.

For B18, the dissociation constant Kd amounted to 8.4 ± 0.7 nM.

As to B19, binding was put at a Kd of 5.8 ± 0.8 nM.

Consider B20, for which the affinity, expressed as Kd, was 11.4 ± 2.3 nM.

As to B21, binding was put at a Kd of 9.2 ± 2 nM.

Molecule B22 yielded a Kd of 12 ± 3.4 nM.

In the case of B23, the Kd is 9 ± 2.5 nM.

With B24, the Kd amounted to 10.9 ± 2.7 nM.

As to B25, the Kd was roughly 27 nM.

In the case of B26, the affinity, expressed as Kd, was 21 ± 4 nM.

B27 registered a dissociation constant Kd of 5.4 ± 1.2 nM.

For orientation: Kd means a measure of binding affinity in units of concentration.
